# Test results taken from article PMC10037368 (2023).
# B1: Sb92 sherpabody (designed binder)
# chain: EEYIAVGDFFSTDPADLTFKKGEILLVIERGTSAGDGWWIAKDAKGNEGLVPRTYLEPYS
# Target: Spike glycoprotein (Wuhan-Hu-1) RBD (Severe acute respiratory syndrome …, UniProt P0DTC2)
# Test: ELISA
binder,measurement,value
B1,Kd,30 nM
